target: Hck (UniProt P08631); assay: phosphorylation enrichment, bacterial display (enrichment ratio); higher = better substrate or ligand; peptides without Tyr show the background
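Also: 11-residue human phosphosite peptides and single-mutation variants displayed on the E. coli surface, counted by deep sequencing, each peptide's frequency after selection divided by its frequency in the unselected input library; frequency after pTyr selection over input frequency; kinase dosed for 20-30% of maximal phosphorylation in three min.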

Hck, sequence (P08631 whole entry, looked up): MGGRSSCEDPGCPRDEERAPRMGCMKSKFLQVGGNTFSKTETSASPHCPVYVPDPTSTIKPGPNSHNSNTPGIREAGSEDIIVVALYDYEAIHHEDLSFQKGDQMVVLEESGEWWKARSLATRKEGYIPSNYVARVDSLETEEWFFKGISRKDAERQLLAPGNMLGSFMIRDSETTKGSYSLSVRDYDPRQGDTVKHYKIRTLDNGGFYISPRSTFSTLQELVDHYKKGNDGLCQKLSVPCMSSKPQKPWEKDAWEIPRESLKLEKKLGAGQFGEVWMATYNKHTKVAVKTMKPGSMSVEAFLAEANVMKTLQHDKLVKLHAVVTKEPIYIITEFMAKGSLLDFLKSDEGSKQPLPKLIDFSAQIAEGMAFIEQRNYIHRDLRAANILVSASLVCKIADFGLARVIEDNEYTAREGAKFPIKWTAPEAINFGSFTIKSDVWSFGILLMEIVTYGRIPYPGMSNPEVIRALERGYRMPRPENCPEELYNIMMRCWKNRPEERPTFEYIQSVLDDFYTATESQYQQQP

Sequence	phosphorylation enrichment
TNYPLYLRSLE [MTM1_Y71_R69P]	0.654
NDKLRYEVSSP [CDH13_Y66]	0.502
VNNAVYGIDAM [EIF3J_Y143]	0.829
DPADRYLTEQF [CDKL5_Y286_C291Y_YF]	0.558
PLDGEYFTLQI [TP53_Y327]	2.55
SVVVPYEPPEG [TP53_Y220_V225G]	0.503
QSSALYEDRFL [ASS1_Y83_YF]	6.48
LDPMVYMNDKS [PTK2B_Y834]	0.386
CEHFSYFGMKA [SLC15A2_Y60_R57H_YF]	0.444
VFLGAYDRFLP [SLC22A5_Y486_YF]	4
SVETPYGSVTF [NDRG2_Y47]	2.16
ENAGFYFRVSA	0.62
ENRLDYGSAWA [AR_Y395_P392R]	0.311
HLITAYRAHGF [PDHA1_Y118]	0.536
FNNPAYYVLEG [INPPL1_Y986]	1.11
QRDSSYYWEIE [RAF1_Y340]	0.981
NYADPYRQLQY [CTNND2_Y503]	0.615
PSDSGYSFETI [MAP1B_Y1921_YF]	0.635
TLLPDYEDEEE [ZNF830_Y159_S154T]	0.709
FRIGPYQPNVP [MATR3_Y784_YF]	0.484
GGTTLYPGIAD [ACTC1_Y308_M307L]	0.442
EERNPYFSSAR [MCCC2_Y520_G517R_YF]	0.659
KPYRVYCDMNT [FGB_Y269]	0.691
FIAVGYVDDTQ [HLA-A_Y51]	0.509
FGLQAYTKVKT [ALDH2_Y502_E504K_YF]	0.513
ELETLYKKAVK [CC2D2A_Y381]	0.554
MRALTYCDLHK [KCNH2_Y827_V822M]	0.507
NHQYDYTFHWT [CSNK1A1_Y294_D297H]	0.758
LAETSYVKVLE [MAGEA1_Y276]	0.473

target: MERTK (UniProt Q12866); assay: as above
Sequence (Q12866 whole entry, looked up): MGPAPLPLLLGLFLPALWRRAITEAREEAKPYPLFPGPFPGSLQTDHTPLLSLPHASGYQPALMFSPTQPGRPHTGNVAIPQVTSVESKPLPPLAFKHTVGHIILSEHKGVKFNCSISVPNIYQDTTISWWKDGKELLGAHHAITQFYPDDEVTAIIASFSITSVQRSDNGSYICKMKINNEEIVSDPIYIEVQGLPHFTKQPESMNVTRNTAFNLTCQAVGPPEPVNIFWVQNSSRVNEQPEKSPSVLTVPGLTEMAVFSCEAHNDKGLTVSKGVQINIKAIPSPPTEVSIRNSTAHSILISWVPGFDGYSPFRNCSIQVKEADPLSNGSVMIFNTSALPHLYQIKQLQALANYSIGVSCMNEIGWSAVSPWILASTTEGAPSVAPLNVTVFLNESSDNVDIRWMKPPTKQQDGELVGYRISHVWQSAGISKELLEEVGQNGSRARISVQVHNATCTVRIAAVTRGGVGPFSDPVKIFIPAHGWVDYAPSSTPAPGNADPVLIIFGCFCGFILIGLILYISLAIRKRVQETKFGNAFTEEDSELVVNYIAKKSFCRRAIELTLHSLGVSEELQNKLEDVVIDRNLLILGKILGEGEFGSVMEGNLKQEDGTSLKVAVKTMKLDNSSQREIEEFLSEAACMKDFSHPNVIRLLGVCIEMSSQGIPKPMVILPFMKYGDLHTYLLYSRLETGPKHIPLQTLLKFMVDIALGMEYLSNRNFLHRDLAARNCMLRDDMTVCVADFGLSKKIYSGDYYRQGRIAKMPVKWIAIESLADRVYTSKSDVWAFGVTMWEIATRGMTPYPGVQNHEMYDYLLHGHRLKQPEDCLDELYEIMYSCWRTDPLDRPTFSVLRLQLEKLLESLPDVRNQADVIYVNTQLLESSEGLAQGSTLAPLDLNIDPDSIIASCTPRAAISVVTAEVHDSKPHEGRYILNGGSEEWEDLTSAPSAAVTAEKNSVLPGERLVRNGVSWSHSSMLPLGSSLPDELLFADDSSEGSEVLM

Sequence	phosphorylation enrichment
TNYPLYLRSLE [MTM1_Y71_R69P]	0.551
NDKLRYEVSSP [CDH13_Y66]	0.451
VNNAVYGIDAM [EIF3J_Y143]	0.426
DPADRYLTEQF [CDKL5_Y286_C291Y_YF]	0.6
PLDGEYFTLQI [TP53_Y327]	0.663
SVVVPYEPPEG [TP53_Y220_V225G]	0.559
QSSALYEDRFL [ASS1_Y83_YF]	1.24
LDPMVYMNDKS [PTK2B_Y834]	0.648
CEHFSYFGMKA [SLC15A2_Y60_R57H_YF]	0.469
VFLGAYDRFLP [SLC22A5_Y486_YF]	5.13
SVETPYGSVTF [NDRG2_Y47]	0.52
ENAGFYFRVSA	0.44
ENRLDYGSAWA [AR_Y395_P392R]	0.364
HLITAYRAHGF [PDHA1_Y118]	0.369
FNNPAYYVLEG [INPPL1_Y986]	7.95
QRDSSYYWEIE [RAF1_Y340]	3.5
NYADPYRQLQY [CTNND2_Y503]	2.57
PSDSGYSFETI [MAP1B_Y1921_YF]	0.641
TLLPDYEDEEE [ZNF830_Y159_S154T]	0.546
FRIGPYQPNVP [MATR3_Y784_YF]	0.532
GGTTLYPGIAD [ACTC1_Y308_M307L]	0.381
EERNPYFSSAR [MCCC2_Y520_G517R_YF]	0.407
KPYRVYCDMNT [FGB_Y269]	0.492
FIAVGYVDDTQ [HLA-A_Y51]	0.415
FGLQAYTKVKT [ALDH2_Y502_E504K_YF]	0.447
ELETLYKKAVK [CC2D2A_Y381]	0.416
MRALTYCDLHK [KCNH2_Y827_V822M]	0.365
NHQYDYTFHWT [CSNK1A1_Y294_D297H]	3.15
LAETSYVKVLE [MAGEA1_Y276]	0.452

target: EPHB1 (UniProt P54762); assay: as above
Sequence (P54762 whole entry, looked up): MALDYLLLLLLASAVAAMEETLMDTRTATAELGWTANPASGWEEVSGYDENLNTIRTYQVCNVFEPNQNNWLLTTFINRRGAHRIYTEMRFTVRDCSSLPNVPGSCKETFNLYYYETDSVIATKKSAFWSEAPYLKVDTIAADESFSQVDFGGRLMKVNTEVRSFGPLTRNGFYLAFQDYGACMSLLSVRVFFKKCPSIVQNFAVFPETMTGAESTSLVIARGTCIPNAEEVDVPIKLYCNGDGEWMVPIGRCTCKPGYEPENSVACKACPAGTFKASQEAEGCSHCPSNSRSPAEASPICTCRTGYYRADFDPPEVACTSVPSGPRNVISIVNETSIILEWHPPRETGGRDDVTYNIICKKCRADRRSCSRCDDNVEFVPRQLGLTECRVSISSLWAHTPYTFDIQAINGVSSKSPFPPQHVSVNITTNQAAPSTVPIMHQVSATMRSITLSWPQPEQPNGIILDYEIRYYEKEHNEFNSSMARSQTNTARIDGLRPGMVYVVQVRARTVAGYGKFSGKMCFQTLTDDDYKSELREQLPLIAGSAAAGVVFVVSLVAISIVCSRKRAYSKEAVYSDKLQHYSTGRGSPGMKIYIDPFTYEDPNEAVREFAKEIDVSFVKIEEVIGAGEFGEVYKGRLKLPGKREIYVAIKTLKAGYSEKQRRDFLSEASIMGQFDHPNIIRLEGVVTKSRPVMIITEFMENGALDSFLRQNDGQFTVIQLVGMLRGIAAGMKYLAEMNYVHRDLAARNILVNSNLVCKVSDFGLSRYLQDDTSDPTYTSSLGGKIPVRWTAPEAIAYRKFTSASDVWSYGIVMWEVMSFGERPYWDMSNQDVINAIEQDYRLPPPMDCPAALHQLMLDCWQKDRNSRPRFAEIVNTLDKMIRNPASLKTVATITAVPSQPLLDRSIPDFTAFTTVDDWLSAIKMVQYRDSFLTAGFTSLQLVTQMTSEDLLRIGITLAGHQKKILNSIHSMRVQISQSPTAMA

Sequence	phosphorylation enrichment
TNYPLYLRSLE [MTM1_Y71_R69P]	1.01
NDKLRYEVSSP [CDH13_Y66]	0.473
VNNAVYGIDAM [EIF3J_Y143]	0.417
DPADRYLTEQF [CDKL5_Y286_C291Y_YF]	0.514
PLDGEYFTLQI [TP53_Y327]	1.32
SVVVPYEPPEG [TP53_Y220_V225G]	0.685
QSSALYEDRFL [ASS1_Y83_YF]	4.13
LDPMVYMNDKS [PTK2B_Y834]	0.727
CEHFSYFGMKA [SLC15A2_Y60_R57H_YF]	0.555
VFLGAYDRFLP [SLC22A5_Y486_YF]	1.01
SVETPYGSVTF [NDRG2_Y47]	0.501
ENAGFYFRVSA	0.794
ENRLDYGSAWA [AR_Y395_P392R]	0.359
HLITAYRAHGF [PDHA1_Y118]	0.572
FNNPAYYVLEG [INPPL1_Y986]	0.851
QRDSSYYWEIE [RAF1_Y340]	2.77
NYADPYRQLQY [CTNND2_Y503]	9.61
PSDSGYSFETI [MAP1B_Y1921_YF]	0.639
TLLPDYEDEEE [ZNF830_Y159_S154T]	0.925
FRIGPYQPNVP [MATR3_Y784_YF]	0.477
GGTTLYPGIAD [ACTC1_Y308_M307L]	0.446
EERNPYFSSAR [MCCC2_Y520_G517R_YF]	0.466
KPYRVYCDMNT [FGB_Y269]	1.53
FIAVGYVDDTQ [HLA-A_Y51]	0.453
FGLQAYTKVKT [ALDH2_Y502_E504K_YF]	0.763
ELETLYKKAVK [CC2D2A_Y381]	0.526
MRALTYCDLHK [KCNH2_Y827_V822M]	0.73
NHQYDYTFHWT [CSNK1A1_Y294_D297H]	3.18
LAETSYVKVLE [MAGEA1_Y276]	0.499

target: FGFR1 (UniProt P11362); assay: as above
Sequence (P11362 whole entry, looked up): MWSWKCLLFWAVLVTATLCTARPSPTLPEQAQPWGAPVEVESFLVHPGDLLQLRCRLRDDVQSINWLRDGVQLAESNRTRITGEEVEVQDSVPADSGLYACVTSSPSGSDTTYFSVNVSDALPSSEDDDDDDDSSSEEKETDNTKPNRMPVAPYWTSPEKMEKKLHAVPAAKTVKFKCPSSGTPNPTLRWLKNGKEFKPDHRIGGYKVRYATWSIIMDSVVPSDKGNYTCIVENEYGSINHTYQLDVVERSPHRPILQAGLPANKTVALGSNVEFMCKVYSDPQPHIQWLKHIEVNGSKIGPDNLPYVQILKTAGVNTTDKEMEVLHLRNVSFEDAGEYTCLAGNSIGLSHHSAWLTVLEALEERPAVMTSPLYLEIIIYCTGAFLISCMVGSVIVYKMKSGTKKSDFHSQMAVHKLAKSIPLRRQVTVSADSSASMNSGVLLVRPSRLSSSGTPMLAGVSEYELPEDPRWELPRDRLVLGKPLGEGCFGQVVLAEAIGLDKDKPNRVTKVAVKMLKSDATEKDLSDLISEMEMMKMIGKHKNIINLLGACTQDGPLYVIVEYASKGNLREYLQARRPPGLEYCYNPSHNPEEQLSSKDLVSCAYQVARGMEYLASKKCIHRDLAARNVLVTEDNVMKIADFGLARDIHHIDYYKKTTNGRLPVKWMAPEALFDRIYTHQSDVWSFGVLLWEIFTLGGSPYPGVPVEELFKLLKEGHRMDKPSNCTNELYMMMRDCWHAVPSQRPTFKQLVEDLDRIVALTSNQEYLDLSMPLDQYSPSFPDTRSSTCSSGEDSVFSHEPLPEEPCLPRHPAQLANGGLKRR

Sequence	phosphorylation enrichment
TNYPLYLRSLE [MTM1_Y71_R69P]	0.671
NDKLRYEVSSP [CDH13_Y66]	0.475
VNNAVYGIDAM [EIF3J_Y143]	0.506
DPADRYLTEQF [CDKL5_Y286_C291Y_YF]	0.591
PLDGEYFTLQI [TP53_Y327]	9.82
SVVVPYEPPEG [TP53_Y220_V225G]	0.533
QSSALYEDRFL [ASS1_Y83_YF]	0.781
LDPMVYMNDKS [PTK2B_Y834]	0.727
CEHFSYFGMKA [SLC15A2_Y60_R57H_YF]	1.61
VFLGAYDRFLP [SLC22A5_Y486_YF]	0.704
SVETPYGSVTF [NDRG2_Y47]	0.397
ENAGFYFRVSA	0.841
ENRLDYGSAWA [AR_Y395_P392R]	0.353
HLITAYRAHGF [PDHA1_Y118]	0.701
FNNPAYYVLEG [INPPL1_Y986]	12.1
QRDSSYYWEIE [RAF1_Y340]	3.91
NYADPYRQLQY [CTNND2_Y503]	3.72
PSDSGYSFETI [MAP1B_Y1921_YF]	0.633
TLLPDYEDEEE [ZNF830_Y159_S154T]	0.683
FRIGPYQPNVP [MATR3_Y784_YF]	0.538
GGTTLYPGIAD [ACTC1_Y308_M307L]	0.537
EERNPYFSSAR [MCCC2_Y520_G517R_YF]	0.486
KPYRVYCDMNT [FGB_Y269]	0.51
FIAVGYVDDTQ [HLA-A_Y51]	0.505
FGLQAYTKVKT [ALDH2_Y502_E504K_YF]	0.472
ELETLYKKAVK [CC2D2A_Y381]	0.485
MRALTYCDLHK [KCNH2_Y827_V822M]	0.509
NHQYDYTFHWT [CSNK1A1_Y294_D297H]	5.52
LAETSYVKVLE [MAGEA1_Y276]	0.53
